From patent US20110040072A1, “MONO AND DI-SUBSTITUTED OXYCODONE COMPOUNDS AND COMPOSITIONS” (SHIRE LLC, priority 2006, published 2011)

Experiments:
[1] = Oral bioavailability / oral pharmacokinetics of oxycodone conjugates in rats; conditions: for AUC % (Oral Bioavailability): reference = 100
[2] = Intranasal bioavailability of oxycodone conjugates in rats; conditions: for AUC % (Intranasal Bioavailability): reference = 100
[3] = Intravenous bioavailability of oxycodone conjugates in rats
[4] = background statement; cited from earlier work
[5] = relative to OXY = 100, n = 4 animals, analysis by LC-MS

COc1ccc2c3c1O[C@H]1C(OC(=O)[C@@H](NC(=O)[C@H](CCCCN)NC(=O)[C@@H](N)CCCCN)C(C)C)=CC[C@@]4(O)[C@@H](C2)N(C)CC[C@]314 [Lys-Lys-Val-OC]
Oral (% AUC) [1, 5]: 108 % AUC

COc1ccc2c3c1O[C@H]1C(OC(=O)[C@@H]4CCCN4C(=O)[C@H](CCC(=O)O)NC(=O)[C@@H](N)CCC(=O)O)=CC[C@@]4(O)[C@@H](C2)N(C)CC[C@]314 [Glu-Glu-Pro-OC]
Oral (% AUC) [1, 5]: 71 % AUC

COc1ccc2c3c1O[C@H]1C(OC(=O)[C@@H](NC(=O)[C@H](CCC(=O)O)NC(=O)[C@@H](N)CCC(=O)O)C(C)C)=CC[C@@]4(O)[C@@H](C2)N(C)CC[C@]314 [Glu-Glu-Val-OC]
Oral (% AUC) [1, 5]: 55 % AUC

COc1ccc2c3c1O[C@H]1C(OC(=O)[C@H](Cc4ccccc4)NC(=O)[C@H](CCCCN)NC(=O)[C@@H](N)CCCCN)=CC[C@@]4(O)[C@@H](C2)N(C)CC[C@]314 [Lys-Lys-Phe-OC]
Oral (% AUC) [1, 5]: 37 % AUC

Tyr-Tyr-Val-OC
AUC % (Oral Bioavailability) [1]: 124%
Oral (% AUC) [1, 5]: 124 % AUC

COc1ccc2c3c1O[C@H]1C(OC(=O)[C@H](CC(C)C)NC(=O)[C@H](CCC(=O)O)NC(=O)[C@@H](N)CCC(=O)O)=CC[C@@]4(O)[C@@H](C2)N(C)CC[C@]314 [Glu-Glu-Leu-OC]
Oral (% AUC) [1, 5]: 80 % AUC

Val-Val-Phe-OC
Oral (% AUC) [1, 5]: 120 % AUC

COc1ccc2c3c1O[C@H]1C(OC(=O)[C@@H](NC(=O)[C@H](CCC(=O)O)NC(=O)[C@@H](N)C(C)C)C(C)C)=CC[C@@]4(OC(=O)[C@@H](NC(=O)[C@H](CCC(=O)O)NC(=O)[C@@H](N)C(C)C)C(C)C)[C@@H](C2)N(C)CC[C@]314 [(VEV)2-OC, [Val-Glu-Val]2-OC]
AUC % (Intranasal Bioavailability) [2]: 39%
AUC % (Oral Bioavailability) [1]: 104%

COc1ccc2c3c1O[C@H]1C(OC(=O)[C@@H](NC(=O)[C@H](CC(=O)O)NC(=O)[C@@H](N)CC(=O)O)C(C)C)=CC[C@@]4(O)[C@@H](C2)N(C)CC[C@]314 [Asp-Asp-Val-OC]
Oral (% AUC) [1, 5]: 40 % AUC

COc1ccc2c3c1O[C@H]1C(OC(=O)[C@@H](NC(=O)[C@H](CC(=O)O)NC(=O)[C@@H](N)CCC(=O)O)C(C)C)=CC[C@@]4(OC(=O)[C@@H](NC(=O)[C@H](CC(=O)O)NC(=O)[C@@H](N)CCC(=O)O)C(C)C)[C@@H](C2)N(C)CC[C@]314 [(EDV)2-OC, [Glu-Asp-Val]2-OC]
AUC % (Intranasal Bioavailability) [2]: 20%
AUC % (Oral Bioavailability) [1]: 73%

COc1ccc2c3c1O[C@H]1C(OC(=O)[C@H](Cc4ccccc4)NC(=O)CNC(=O)CN)=CC[C@@]4(O)[C@@H](C2)N(C)CC[C@]314 [Gly-Gly-Phe-OC]
Oral (% AUC) [1, 5]: 163 % AUC

Phe-Phe-Val-OC
Oral (% AUC) [1, 5]: 32 % AUC

COc1ccc2c3c1O[C@H]1C(OC(=O)[C@@H](NC(=O)CNC(=O)CN)C(C)C)=CC[C@@]4(O)[C@@H](C2)N(C)CC[C@]314 [Gly-Gly-Val-OC]
Oral (% AUC) [1, 5]: 123 % AUC

COc1ccc2c3c1O[C@H]1C(OC(=O)[C@@H](NC(=O)[C@H](CC(C)C)NC(=O)[C@@H](N)CC(C)C)C(C)C)=CC[C@@]4(O)[C@@H](C2)N(C)CC[C@]314 [Leu-Leu-Val-OC]
Oral (% AUC) [1, 5]: 81 % AUC

Tyr-Tyr-Ile-OC
Oral (% AUC) [1, 5]: 85 % AUC

CC[C@H](C)[C@H](NC(=O)[C@H](CCC(=O)O)NC(=O)[C@@H](N)CCC(=O)O)C(=O)OC1=CC[C@@]2(O)[C@H]3Cc4ccc(OC)c5c4[C@@]2(CCN3C)[C@H]1O5 [Glu-Glu-Ile-OC]
Oral (% AUC) [1, 5]: 179 % AUC

CC[C@H](C)[C@H](N)C(=O)N[C@H](C(=O)N[C@H](C(=O)OC1=CC[C@@]2(O)[C@H]3Cc4ccc(OC)c5c4[C@@]2(CCN3C)[C@H]1O5)[C@@H](C)CC)[C@@H](C)CC [Ile-Ile-Ile-OC]
Oral (% AUC) [1, 5]: 83 % AUC

Tyr-Tyr-Pro-OC
Oral (% AUC) [1, 5]: 59 % AUC

Tyr-Tyr-Phe-OC
Oral (% AUC) [1, 5]: 73 % AUC

COc1ccc2c3c1O[C@H]1C(OC(=O)[C@H](CC(C)C)NC(=O)[C@@H]4CCCN4C(=O)[C@@H]4CCCN4)=CC[C@@]4(OC(=O)[C@H](CC(C)C)NC(=O)[C@@H]5CCCN5C(=O)[C@@H]5CCCN5)[C@@H](C2)N(C)CC[C@]314 [[PPL]2-OC, [Pro-Pro-Leu]2-OC]
bioavailability by the intranasal route ([2]; versus oxycodone): substantially decreased
bioavailability by the intravenous route ([3]; versus oxycodone): substantially decreased

Pro-Pro-Val-OC
AUC % (Oral Bioavailability) [1]: 152%
Oral (% AUC) [1, 5]: 152 % AUC

COc1ccc2c3c1O[C@H]1C(OC(=O)[C@H](Cc4ccccc4)NC(=O)[C@H](CCC(=O)O)NC(=O)[C@@H](N)CCC(=O)O)=CC[C@@]4(O)[C@@H](C2)N(C)CC[C@]314 [Glu-Glu-Phe-OC]
Oral (% AUC) [1, 5]: 49 % AUC

CC[C@H](C)[C@H](NC(=O)CNC(=O)CN)C(=O)OC1=CC[C@@]2(O)[C@H]3Cc4ccc(OC)c5c4[C@@]2(CCN3C)[C@H]1O5 [Gly-Gly-Ile-OC]
Oral (% AUC) ([1]; relative to OXY = 100, dosed at 40% higher levels than calculated, n = 4 animals, LC-MS): 224 % AUC

COc1ccc2c3c1O[C@H]1C(OC(=O)[C@H](CC(C)C)NC(=O)[C@H](CCCCN)NC(=O)[C@@H](N)CCCCN)=CC[C@@]4(O)[C@@H](C2)N(C)CC[C@]314 [Lys-Lys-Leu-OC]
Oral (% AUC) [1, 5]: 46 % AUC

CC[C@H](C)[C@H](NC(=O)[C@H](CCCCN)NC(=O)[C@@H](N)CCCCN)C(=O)OC1=CC[C@@]2(O)[C@H]3Cc4ccc(OC)c5c4[C@@]2(CCN3C)[C@H]1O5 [Lys-Lys-Ile-OC]
Oral (% AUC) [1, 5]: 74 % AUC

COc1ccc2c3c1O[C@H]1C(OC(=O)[C@@H](NC(=O)[C@H](C)NC(=O)[C@H](C)N)C(C)C)=CC[C@@]4(O)[C@@H](C2)N(C)CC[C@]314 [Ala-Ala-Val-OC]
Oral (% AUC) [1, 5]: 85 % AUC

Pro-Pro-Ile-OC
AUC % (Oral Bioavailability) [1]: 85%
Oral (% AUC) [1, 5]: 85 % AUC

COc1ccc2c3c1O[C@H]1C(=O)CC[C@@]4(O)[C@@H](C2)N(C)CC[C@]314 [OXY, oxycodone]
Therapeutic plasma concentration [4]: 10 to 100 ng/mL
toxic plasma concentration [4]: greater than 200 ng/mL
AUC % (Oral Bioavailability) [1]: 100%
Oral (% AUC) [1, 5]: 100 % AUC

Phe-Phe-Ile-OC
Oral (% AUC) [1, 5]: 59 % AUC

COc1ccc2c3c1O[C@H]1C(OC(=O)[C@@H](NC(=O)CNC(=O)[C@@H](N)CO)C(C)C)=CC[C@@]4(OC(=O)[C@@H](NC(=O)CNC(=O)[C@@H](N)CO)C(C)C)[C@@H](C2)N(C)CC[C@]314 [(SGV)2-OC, [Ser-Gly-Val]2-OC]
AUC % (Intranasal Bioavailability) [2]: 64%
AUC % (Intravenous Bioavailability) ([3]; reference = 100): 52%
AUC % (Oral Bioavailability) [1]: 103%

OC-Succcinate
Oral (% AUC) [1, 5]: 79 % AUC
